Assay: label from the status in PepcDB records
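Further: failed if final PepcDB status was selected cloned or expressed and not failed if soluble or beyond.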

Sequence	protein production
MNKWVITSLFAISTLSASVASALEVRYMATPQQSTWQMATNTPLECRLVHPIPNYGDAEFSSRAGKKINLDFELKMRRPMGDTRNVSLVSMPPVWRPGEGADRITNLQFFKQFDGYIGGQTAWSLLSELEKGRYPTFSYQDWQSRDQRIEVALSSVLFQQPYNEFSDCISKLLPYSFEDISFTILHYDQGTSVELNKASQKRLAQIAEYVRYNQDIDLVLVSTYTDSTDTNNNSQNLSEQRAEVLREYFKSIGLPEDRIQVQGYGKRRPIADNASPIGKDKNRRVVISLGRTQV	failed
MDLNFSKEEIAFRDEVRQFFKDNVPAKTRQKLIEGRHNTKEEMVEWYRILNKKGWAVTHWPKEYGGTGWSSVQHYIFNEELQAAPAPQPLAFGVSMVGPVIYTFGSEEQKKRFLPRIANVDDWWCQGFSEPGSGSDLASLKTKAEKKGDKWIINGQKTWTTLAQHADWIFCLCRTDPAAKKQEGISFILVDMKTKGITVRPIQTIDGGHEVNEVFFDDVEVPLENLVGQENKGWDYAKFLLGNERTGIARVGMSKERIRRIKQLAAQVESGGKPVIEDPKFRDKLAAVEIELKALELTQLRVVADEGKHGKGKPNPASSVLKIKGSEIQQATTELLMEVIGPFAAPYDVHGDDDSNETMDWTAQIAPGYFNNRKVSIYGGSNEIQRNIICKAVLGL	failed
LKGEPDCYALSLESSEQLTLEIPLNDSGSAGLGVSLKGNKSRETGTDLGIFIKSIIHGGAAFKDGRLRMNDQLIAVNGETLLGKSNHEAMETLRRSMSMEGNIRGMIQLVILRR	not failed
MGHHHHHHSHMATSRYEPVAEIGVGAYGTVYKARDPHSGHFVALKSVRVPNGGGGGGGLPISTVREVALLRRLEAFEHPNVVRLMDVCATSRTDREIKVTLVFEHVDQDLRTYLDKAPPPGLPAETIKDLMRQFLRGLDFLHANCIVHRDLKPENILVTSGGTVKLADFGLARIYSYQMALTPVVVTLWYRAPEVLLQSTYATPVDMWSVGCIFAEMFRRKPLFCGNSEADQLGKIFDLIGLPPEDDWPRDVSLPRGAFPPRGPRPVQSVVPEMEESGAQLLLEMLTFNPHKRISAFRALQHSYLHK	failed
MASSLITSAVIVVVLSLVLGSVEQVSGLRHVPKSPKTTDVKHPDFLVTIEPKPTILIPGVGRFLLPPKCKKPFYPYNPVTGAPLTGGGIPSYNGGQGAGPHTQLPGGDDTLVPNPGFEAPTPTIGAGTGSNGQVPPVPLP	failed
MLIRPATTADFDALRAIELAAFETLRAAGAVSGSASASTDQQLQRYLDHGLLDVACDQSGEPIGFCGGYIAESFLHIGEMDVHPAWQRQGVGRRLLTALLEEARARKADGATLTTDRLVPFNAPFYASLGFRPLADDELPAKLREILDAEANMGLDPDRRIAMMLRF	failed
MKIAILYREEREKEGEFLKEKISKEHEVIEFGEANAPGRVTADLIVVVGGDGTVLKAAKKAADGTPMVGFKAGRLGFLTSYTLDEIDRFLEDLRNWNFREETRWFIQIESELGNHLALNDVTLERDLSGKMVEIEVEVEHHSSMWFFADGVVISTPTGSTAYSLSIGGPIIFPECEVLEISPIAPQFFLTRSVVIPSNFKVVVESQRDINMLVDGVLTGKTKRIEVKKSRRYVRILRPPEYDYVTVIRDKLGYGRRIE	not failed
MENAPLLFQLPDDDTLYQALLARDPAYEGFAFVGVKSTGVFCRLTCAARKPKRENTVFFGSIKGCVEAGFRACLRCRPLERAGVQEPWVQTLLEQLGRDPERRWYEDDLVAQGLDPSTVRRAFKRYFGVTFLEMARLRRMGQGMQQLASGEPVIEAQISAGFDSDSGFRHAFSRLAGQPPSNLRGRELLKVDWLQTPIGVMLAVADAQVLHLLEFFDRPALANELQNLQKSSGSSIGFGRFAPIDQIEAELQRYFAGEAVHFATPLAMSASPFTRTVWQALRAIPLGTTCSYAEVARQVGSPSAVRAVARANAANQISIVIACHRVIGADGSLTGYGGGLWRKRWLLEHERRLHHLQGASASGL	failed
VIVDSVGNVLSDGDTVSITKTIKVKGAQQPLKSGMKARNIRLKPEVGTGPEDHNIECKIDGFGQMILKPAVVKKIV	failed
LRSRRKPSSRIGRRPSTTQDRISTVGIELFTEQGFDATSVDEVAEASGIARRTLFRYFPSKNAIPWGDFDAHLAEMRAQLAAQPDDIPIVDGLTAALLQFNAFPASEEINHRKRMGLILRVPALQAYSVVMYEGWRNVIAEYVASRLGTSPTDHVPRTVGYLLLGVAMSAYEQWLDDDSLELNELLASGMQSLYDGLSSLGEPDTRT	not failed
MLKQIRPLYLLLYLTPLMFDIILLYTYLDNGIIYWLDSNYPFSPLILLRKILFYYWNDPFFPGAPLFYSQDSLFMGIIIFLLYNIFHFSLELSEFIYLLLFIYLSQVGFVKLLNIIFEILEKRYSSYFTLIAGLLGGFIYSWGFYSYTPPILGVNYPFFIFYMLFPLVLYFSIKYIFKEKVISFSLIILYLILASGTLFSEFTYLLWSIVLYLFTVVPIWLLSRKPSFVQFTVKNLVIALIVIVAGLEQLYQTYNASIGAYQVGVHGEFLGKPIVIYETEAQYKNFPLSSFISLYSPEKYEIIGVLIFVLIFATILFIKGKTGKFFAPLLFLLLIIGGLSTGIINVLPLYSLHSTPIGFIAIGLMYSIQYIFSGFPVSFVSSLIIGYTLLYILEYLGKRRNYIKILFILIILLLSSSYIYSFRAGEVHPEIRAFNLPVNATNIFYPPPELVSVGNYLSVHDEFYNVIEFPMQYAAGMYDNNGTKAVWYTIYPLSDYIMGQVIKSPALANNAIIKSLANSAIYPIYKYFPAFNITNITNYFVLLGAKYIVLNKQEYPGPGVPLGYAGGYPWNYTKFIEALARTPNITLVMENSYYNVYMINLNVSLLYPSEGLAENLSSDQLFFLYANNMLKAQKQSVIYGLGAINITNISGVHIRVVNDYCNEVYEIQVNASRPFYLVFDEGYSPLWEVTINGEINTHHYIANGYANAWLMPAGNYVATLKLSILQTVHITYLLVFLGFIILVLIYVLQRFKIFRYFKNY	failed
MWKRASRRAGLRRRAVAQPVPPAELGGTAFSSVLEQLELECRAMVSYALKQGLAMSPDLPGRLAELRVMPGASLHGESGARELAGLHRQLVRAIQPATPQAVVLIERERLRGGWLRWLGPIPLIRTLTLTSVGCLASVVGLAMSSLVNERNITLGFLDSSGSTLGWNVMFILACAGLGAAFSALFQAHRYVADATYDPRFDSSYAARMILGLIAG	failed
MDMIKPDFQQIRRDKFRVEQMNDFPNTWTQQQHQNIRIPNNLDLIGILQNQISVPVQTDLYQDSAATFMNMPQSIHRDPQGPSNWRISDLSQPSTVNHGYDQAGIRPNNVADLLSDHFSSRNQILDRPLYVGRDSIPQSSMIRRSEVSCLDDNQKGCVTVACSGTGNEILRSSYDQGSSSGSYRGEFSFLPSLENQSVAHNASNWNHGPVNVTATSHTNSKKGFPLSLLSDIPPSRDVGNAAVLSTMNIHGPLGPFTGYASILKSSRFLEPAQKMLEEFCISYASKIISRSESTSMEDDDDDDDNLSGFSSSSEPLEPKNRLKKAKLLFLQEEVCKWYKLYNHQLQTVMSSFNTVAGLNTATPYISLALKRTSRSFKALRTAIAEHVKQISSHSSNGNNNNRFQKRQRSLIGNNVGFESQQQHIWRPQRGLPERAVAVLRAWLFDHFLHPYPTDSDKQMLATQTGLSRNQVSNWFINARVRLWKPMVEEIHTLETKAIKNADTSHNIEPSNRPNTVSSPSHEQTLTGLSGTKRSRLEYMDMVGFNRGNVSLTLELRRGVDNVIQTQTQDHQFGTGSQMFHDFVG	failed
MGHHHHHHSHGQLVRGKVCEYSTDGAYIDIGGKAPAFLPKREAALHAVLDLEAHLPKDEELEFLVIRDQNEDGQVTVSLRA	failed
MINLAVLGLYLLIGFILKRTGKCPENSAQVLNLYVIYAALPGVIFSKVPALEFSTDLLIPVVIPWVLLAFSAVFIWLLGRAFKWPREVVGALLICVPLGNTSFFGFPMIEAFYGSDAIVYGLLYDQFGSFFGLAIYSTIVIALYREQDNKPTVASVTRQIVTFPPFIALIIALLTKSLVYPEVFQRLIDSLAVTLVPVIMIAVGFQLKFRLPKGSKTPLTIGLLTKLVLMPLITVGLLYGFGFDSTLVQVTIFESAMPPMITAGAVAIMAGLAPRLSAAMVGYGILFAFVSLPIVYQLLQLLSAH	failed
MKIRNACKEDAQQLIAIYASYVEKTAITFEYQVPSLEEFEERIEKTKQKFPYLVAEEEGILQGYAYASVYYNHAAYDWTVELSIYIKEEARGKHIGSQLYASLERNLQEAGFVNLLVCIALPNNASLTFHKKHGYEQVAHFKKVGYKFDKWYDIVWMQKRLLD	failed
MEVPKEQIATLIEHGLYDSAEMLGCFLVSSPTVSAETSPQLKAENLILLGDALFHQREHRRAIHTYKQALHHYTRIPKQSSGISRSSLSLSTRSSVNASSISAINENEVRFKIASSHFALNETKAAIAEMESVKTRSLEMNILMAKLHRNSGYNRGAIAFYKECLRQCPYVLEAVIGLAELGVSAKDIISSFTQTSNRSAKVSLDQIDPTRWLQRYVEAQCCVASHAYKGALELFAELLQRFPNNVHLLTETAKVEAIIGKNDEAIMRFEKVRSIDPYTLTSMDEYAMLLQIKCDYSRLNKLVHDLLSVDHTRAEVFVALSVLWERKDARTALSYAEKSIRVDERHIPGYIMKGNLLLQAKRPEAAAIAFRAAQNLRSDLRSYQGLVHSYLAFGKTKEALYTAREAMNAMPQSAKALKLVGDVHAFTSSGREKAKKFYESGLRLEPGYLGAVLALAELHLMEGRNGDAVSLLERYLKDYADDSLHVKLAQVFAATNMLQDSLSHFQAALRINPQNEAAKKGLDRLEKQMKGIDPDATDENDENDVEDVDGDTEEAELM	failed
MGQMISEMRHGVRRPVWHDLAERFDEPRECLASFLALEAAEVLAGEKPANLIGIANRTRACGRNLYVLWKQWGAMVLGESGLAVRELSDRGDSLLLLLYRPEALEALLRRPSASAVLARAGYGAATGLDEVLTELSTRIDGDRFPHEIGVFLGYPLKDVAAFMGLVRIPFACQGPWKIFGDPRESLRLAEVFRCCRARMAERLNRCTSALDCLADGSPRPVVGFDEIESHSYGGKAMCIAVIGGMDRLEKHYREEAVRSGVELRMFSQSENNIAVKLKRFDALVIFTNKVSHRVKNEAMAVAKQNGIPVFMHHSCGVCTLRDCLSCLTATVAHVGESDRPDLGRRKNHS	failed
QSTGQVTLGVLTDMSSVYADSAGKGSVAAVQLAIEDVGGKALGQPVKLVSADYQMKTDVALSIAREWFDRDGVDAIFDVVNSGTALAINNLVKDKKKLAFITAAAADQIGGTECNGYGIGFLYNFTSIVKTVVQAQLAKGYKTWFLMLPDAAYGDLMNAAIRRELTAGGGQIVGSVRFPFETQDFSSYLLQAKASGAQLIVSTSGGAANINIMKQAREFGLPSKTQKVGGMIDILTDVKSAGLRVMQGQEYATSFYWNMDDRTRAFAKRFYAKMGKMPTNNQAGGYSAALQYLKAVNAIGSKDPQKVFAYLKTIKFDDAVTRHGTLRPGGRLVRDMYLVRAKKPEDQKGDWDYYDVVATIGPEQAFGPLSESRCAMDK	not failed
MMEEVARVVACDNQGWLTVEVELKSTCKSCNSSESCGTSAVAQAFSSKTQQFSIQSERTCEVGELLKLGLPESVILKAAALVYLMPLLGLFLGALSGQFFAGLFQINADLSAIGFAALGAITAWLIGKRKAKQLEVDSQPVILAYLGAGISLEKLPV	failed
MIRKFSLIMATYGRKDEVGCFLESLMNSNYPMDKVEVIIVDQNKEIDLEPIISKYKEKIKVVHIKSNERGLALNRNKGLEIATGDIIAFPDDDCEYLVDTLNIVNNYFENEHCDLLMGRIVERNGEDSLREWPKEKIEINKNNFYTKCSSVTMFLDSKKCFVKFNDQLGAGKYFGACEDADLIYKNCKKGLKIIYNPELQIYHPHYDSNSNMDDKKIYSYGLGFGAMVKSNFDFSMLILFIKAEGYHFLKSLIYLITFKTTKSKRSWLAFKSRIKGFFEYKN	failed

Reference: a protein production outcome set (Wang et al. 2014)
